# Results published in paper PMC10798159.
# Tests used:
# human serum albumin [1] = test: SPR; fit kinetic; antibody as scFv; antigen as not_told; on the surface: target; avidity monovalent
# macaque serum albumin [2] = test: as above
# rat serum albumin = test: as above
# human serum albumin [3] = test: ELISA; fit steady_state; antibody as scFv; antigen as not_told; on the surface: target; avidity monovalent
# macaque serum albumin [4] = test: as above
substance,measurement,setting,value
SON-1210,Kd,human serum albumin [1]; pH 5.8,500 nM
same,Kd,human serum albumin [1]; pH 7.4,800 nM
same,Kd,macaque serum albumin [2]; pH 5.8,900 nM
same,Kd,macaque serum albumin [2]; pH 7.4,2300 ± 400 nM
same,Kd,rat serum albumin; pH 5.8,5400 ± 1920 nM
same,Kd,rat serum albumin; pH 7.4,12900 ± 5100 nM
same,Kd,human serum albumin [3]; pH 6.2,80 ± 10 nM
same,Kd,human serum albumin [3]; pH 7.4,60 ± 30 nM
same,Kd,macaque serum albumin [4]; pH 6.2,600 ± 300 nM
same,Kd,macaque serum albumin [4]; pH 7.4,400 ± 200 nM
